IntAct's records for PubMed 18278053

B1: Integrin beta-1 (Gallus gallus (Chicken)), P07228 (parent)
chain: MAETNLTLLTWAGILCCLIWSGSAQQGGSDCIKANAKSCGECIQAGPNCGWCKKTDFLQEGEPTSARCDDLAALKSKGCPEQDIENPRGSKRVLEDREVTNRKIGAAEKLKPEAITQIQPQKLVLQLRVGEPQTFSLKFKRAEDYPIDLYYLMDLSYSMKDDLENVKSLGTALMREMEKITSDFRIGFGSFVEKTVMPYISTTPAKLRNPCTGDQNCTSPFSYKNVLSLTSEGNKFNELVGKQHISGNLDSPEGGFDAIMQVAVCGDQIGWRNVTRLLVFSTDAGFHFAGDGKLGGIVLPNDGKCHLENNMYTMSHYYDYPSIAHLVQKLSENNIQTIFAVTEEFQAVYKELKNLIPKSAVGTLSSNSSNVIQLIIDAYNSLSSEVILENSKLPKEVTISYKSYCKNGVNDTQEDGRKCSNISIGDEVRFEINVTANECPKKGQNETIKIKPLGFTEEVEIHLQFICDCLCQSEGEPNSPACHDGNGTFECGACRCNEGRIGRLCECSTDEVNSEDMDAYCRRENSTEICSNNGECICGQCVCKKRENTNEVYSGKYCECDNFNCDRSNGLICGGNGICKCRVCECFPNFTGSACDCSLDTTPCMAGNGQICNGRGTCECGTCNCTDPKFQGPTCEMCQTCLGVCAEHKDCVQCRAFEKGEKKETCSQECMHFNMTRVESRGKLPQPVHPDPLSHCKEKDVGDCWFYFTYSVNSNGEASVHVVETPECPSGPDIIPIVAGVVAGIVLIGLALLLIWKLLMIIHDRREFAKFEKEKMNAKWDTGENPIYKSAVTTVVNPKYEGK

Variants of: B1
Settings: with urp2_mouse Fermt3, Q8K1B8
Sequence of urp2_mouse Fermt3, Q8K1B8 (Q8K1B8 whole entry): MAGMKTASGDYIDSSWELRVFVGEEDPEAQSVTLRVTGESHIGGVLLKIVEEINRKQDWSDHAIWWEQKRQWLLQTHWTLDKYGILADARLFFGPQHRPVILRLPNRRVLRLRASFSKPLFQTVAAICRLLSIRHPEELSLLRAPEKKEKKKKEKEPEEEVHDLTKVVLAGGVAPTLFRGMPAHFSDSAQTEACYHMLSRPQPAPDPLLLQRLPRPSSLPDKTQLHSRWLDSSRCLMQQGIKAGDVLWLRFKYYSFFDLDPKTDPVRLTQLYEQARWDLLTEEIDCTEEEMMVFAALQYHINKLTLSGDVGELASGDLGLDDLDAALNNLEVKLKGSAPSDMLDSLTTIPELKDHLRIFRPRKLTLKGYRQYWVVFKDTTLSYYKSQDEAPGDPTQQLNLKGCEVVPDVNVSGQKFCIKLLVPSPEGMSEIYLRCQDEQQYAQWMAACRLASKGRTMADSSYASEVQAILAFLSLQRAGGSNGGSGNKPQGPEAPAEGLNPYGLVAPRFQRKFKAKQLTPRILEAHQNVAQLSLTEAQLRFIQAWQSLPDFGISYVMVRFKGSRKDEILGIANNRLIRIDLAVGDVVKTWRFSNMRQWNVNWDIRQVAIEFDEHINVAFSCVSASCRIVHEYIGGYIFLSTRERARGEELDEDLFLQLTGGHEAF

Variant | effect of a mutation on the interaction
T793A;T794A | disrupting interaction strength
Y800A | disrupting interaction strength
Y788A | decreasing interaction strength
W780A | decreasing interaction strength
